For orientation: IC50 means the concentration needed to halve the response being measured. Low values mean higher potency, high ones lower potency.

The text below walks through data of patent US20100279930A1 (published 2010).

The target of test [1] is T1, human Y4 receptor (human, UniProt P50391 1-375). Briefly: 125I-PP displacement.
Test [2] has as its target T1, human Y4 receptor. Nature of the test: 125I-PP displacement. This is another data set of the same source.

Residue numbers refer to the chain shown, from its start. Like-named read-outs stand apart in the source and are kept apart here. No end group written: not given here.

T1 sequence (P50391 whole entry): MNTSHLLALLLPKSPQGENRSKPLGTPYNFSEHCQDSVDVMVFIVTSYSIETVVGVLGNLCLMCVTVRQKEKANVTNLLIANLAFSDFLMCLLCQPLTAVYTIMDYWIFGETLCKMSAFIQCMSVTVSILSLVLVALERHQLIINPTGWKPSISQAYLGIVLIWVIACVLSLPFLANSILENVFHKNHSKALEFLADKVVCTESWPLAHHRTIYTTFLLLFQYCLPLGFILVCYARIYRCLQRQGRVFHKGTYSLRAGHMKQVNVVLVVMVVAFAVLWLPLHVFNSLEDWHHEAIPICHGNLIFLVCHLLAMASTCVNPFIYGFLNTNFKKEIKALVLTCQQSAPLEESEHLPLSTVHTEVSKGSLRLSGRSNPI

For AAPLEPHYPGDNATPEQLARYYSELRRYINKLTRPRY [4059969], the half-inhibitory concentration (IC50) in the test with human Y4 receptor [1] came out at 0.05 nM. As to GAPLEPVYPGDNATPEQMAKYYSELRRYINKLTRPRY [4060147], the IC50 with human Y4 receptor [1] is 0.077 nM. In turn, DAPLEPVYPGDNATPEQMAKYYSELRRYINKLTRPRY [4060148] gave an IC50 with human Y4 receptor [1] of 0.095 nM.

In the test with human Y4 receptor [1], AAPLEPHYPGDNATPEEMARYYSELRRYINKLTRPRY [4059965] yielded an IC50 of 0.083 nM.

On to AAPLEPVYPGDDATPQQMARYYSELRRYINKLTRPRY [4060214], for which, in the test with human Y4 receptor [1], the IC50 was determined as 0.035 nM. Turning to GAPLEPTYPGDNATPEQLAKYYSELRRYINHLTRPRY [4060272], the IC50 with human Y4 receptor [1] turned out to be 0.095 nM. With GAPLEPHYPGDNATPEQLARYYSELRRYINKLTRPRY [4059967], the concentration for half-maximal inhibition (IC50) in the test with human Y4 receptor [1] is 0.064 nM. Regarding PAPLEPHYPGDNATPEQLARYYSELRRYINKLTRPRY [4059966], in the test with human Y4 receptor [1], the IC50 was determined as 0.053 nM. In the test with human Y4 receptor [1], PAPLEPTYPGDNATPEQLAKYYSELRRYINHLTRPRY [4060273] displayed an IC50 of 0.118 nM. GAPLEPTYPGDNATPEQLARYYSELRRYINKLTRPRY [4060211] displayed a half-maximal inhibitory concentration (IC50) in the test with human Y4 receptor [1] of 0.075 nM. The molecule AAPLEPTYPGDNATPEQLARYYSELRRYINKLTRPRY [4060212] returned a half-inhibitory concentration (IC50) with human Y4 receptor [1] of 0.067 nM. As for GAPLEPTYPGDNATPEQLAKYAAELRRYINKLTRPRY [4060207], in the test with human Y4 receptor [1], the IC50 amounted to 0.09 nM. For the molecule YAPLKPEYPGDNATPEQLAKYAAELRRYINKLTRPRY [4059856], the IC50 with human Y4 receptor [1] came out at 0.08 nM. Consider PAPLEPTYPGDDATPEQLAKYAAELRRYINKLTRPRY [4060208], for which the IC50 in the test with human Y4 receptor [1] is 0.126 nM.

Consider PAPLKPTYPGDNATPEQLAKYAAELRRYINKLTRPRY [4059864], for which the half-maximal inhibitory concentration (IC50) with human Y4 receptor [1] is 0.07 nM. Molecule GAPLEPVYPGDNATPEELARYAAELRRYINKLTRPRY [4060134] registered an IC50 in the test with human Y4 receptor [1] of 0.143 nM. With PAPLKPKAPGDNATPEQLAKYAAELRRYINKLTRPRY [4059862], the concentration for half-maximal inhibition (IC50) in the test with human Y4 receptor [1] came to 0.071 nM. The molecule HAPLKPTYPGDNATPEQLAKYAAELRRYINKLTRPRY [4059863] yielded an IC50 with human Y4 receptor [1] of 0.068 nM. In turn, GAPLEPVYPGDNATPEQMARYAADLRRYINKLTRPRY [4057336] returned an IC50 with human Y4 receptor [2] of 0.09 nM. HAPLEPVYPGDNATPEQMARYAAELRRYINKLTRPRY [4057228] registered an IC50 with human Y4 receptor [2] of 0.068 nM. Molecule GAPLEPEYPGDNATPEQMARYAASLRRYINKLTRPRY [4060202] had a concentration for half-maximal inhibition (IC50) in the test with human Y4 receptor [1] of 0.061 nM. Molecule PAPLKPEYPGDNATPEQLAKYAAELRRYINKLTRPRY [4059859] returned an IC50 with human Y4 receptor [1] of 0.108 nM.

For GAPLEPKYPGDDATPEELAKYAAELRRYINKLTRPRY [4060142], the half-maximal inhibitory concentration (IC50) with human Y4 receptor [1] turned out to be 0.143 nM.

Regarding AAPLEPEYPGDNATPEQMAKYAASLRRYINKLTRPRY [4060146], in the test with human Y4 receptor [1], the IC50 is 0.106 nM. GAPLEPTYPGDNATPEQKAKYAAELRRYINKLTRPRY [4060204] registered an IC50 in the test with human Y4 receptor [1] of 0.073 nM. In the test with human Y4 receptor [2], PLEPVYPGDNATPEQMARYAADLRRYINKLTRPRY [4057334] returned an IC50 of 0.082 nM.

As for PLEPEYPGDDATPQQMAKYAADLRRYINKLTRPRY [4057256], in the test with human Y4 receptor [2], the IC50 is 0.073 nM. On the same count and under the same terms, the figure for DAPLEPVYPGDNATPEQMARYAADLRRYINKLTRPRY [4057337] is 0.109 nM; for PAPLEPVYPGDNATPEQMAKYAADLRRYINKLTRPRF [4057235] it is 0.059 nM. In turn, APLEPVYPGDNATPEQMAKYYSELRRYINKLTRPRY [4057270] gave an IC50 with human Y4 receptor [2] of 0.085 nM. In the test with human Y4 receptor [2], APLEPVYPGDNATPEQMARYAAELRRYINKLTRPRY [4057160] displayed a half-maximal inhibitory concentration (IC50) of 0.059 nM.

B1: 4057255 (protein)
chain: CAPLEPVYPGDNATPEQMARYAADLRRYINKLTRPRYCAPLEPVYPGDNATPEQMARYAADLRRYINKLTRPRY
In the test with human Y4 receptor [2], B1 registered an IC50 of 0.22 nM.

B2: 4057260 (protein)
chain: B1 chain with V7E, N12D, E16Q, R20K, V44E, N49D, E53Q, R57K
In turn, B2 came in with a 50% inhibitory concentration (IC50) with human Y4 receptor [2] of 0.209 nM. PAPLEPHFPGDNATPEEMAKYAAELRRYINKLTRPRY [4059940] displayed an IC50 with human Y4 receptor [1] of 0.115 nM. With PAPLEPEYPGDDATPEQMAKYAAELRRYINKLTRPRY [4060205], in the test with human Y4 receptor [1], the IC50 is 0.112 nM. Regarding GAPLEPHAPGDNATPEEMAKYAAELRRYINKLTRPRY (ends and bridges not checked) [compound of SEQ ID NO:1090 (code 4059937)], the half-inhibitory concentration (IC50) with human Y4 receptor [1] stood at 0.209 nM.

In turn, PAPLEPHYPGDNATPEEMAKYAAELRRYINKITRPRY [4059943] gave a 50% inhibitory concentration (IC50) with human Y4 receptor [1] of 0.077 nM. As to GAPLEPRYPGDNATPEEMAKYAAELRRYINKLTRPRY [4060144], the 50% inhibitory concentration (IC50) with human Y4 receptor [1] came to 0.101 nM. In turn, GAPLEPHYPGDNATPEEMAKYAAELRRYINKITRPRY [4059942] returned an IC50 with human Y4 receptor [1] of 0.073 nM.

As to DAPLEPRYPGDNATPEEMAKYAAELRRYINKLTRPRY [4060145], the half-maximal inhibitory concentration (IC50) with human Y4 receptor [1] was 0.173 nM. On to PAPLEPKYPGDNATPEELARYAAELRRYINKLTRPRY [4060138], for which the half-inhibitory concentration (IC50) with human Y4 receptor [1] came out at 0.136 nM. Same read-out and setting: then PAPLEPTYPGDNATPEQKAKYAAELRRYINKLTRPRY [4060203], with 0.067 nM; and PAPLEPHYPGDNATPEEMAKYAAELRRYLNKLTRPRY [4059951], with 0.093 nM. Consider PAPLEPVYPGDNATPEQMAHYAAELRRYINKLTRPRY [4057152], for which the IC50 with human Y4 receptor [2] amounted to 0.141 nM.

Molecule PAPLEPHAPGDNATPEEMAKYAAELRRYINKLTRPRY [4059938] showed an IC50 with human Y4 receptor [1] of 0.128 nM. The molecule PAPLEPHYPGDNATPEEMAKYASELRRYINKLTRPRY [4059936] displayed an IC50 with human Y4 receptor [1] of 0.118 nM. On the same count and under the same terms, then DAPLEPEYPGDDATPEEMAKYAAELRRYINKLTRPRY [4059971], with 0.228 nM. Molecule PAPLEPTYPGDNATPEELARYAAELRRYINKLTRPRY [4060141] gave a 50% inhibitory concentration (IC50) with human Y4 receptor [1] of 0.151 nM.

For PAPLEPRYPGDNATPEEMAKYAAELRRYINKLTRPRY [4060143], the IC50 with human Y4 receptor [1] came to 0.095 nM.

In turn, PAPLEPHYPGDNATPEELARYAAELRRYINKLTRPRY [4060139] registered an IC50 in the test with human Y4 receptor [1] of 0.121 nM. Still for that read-out and setting: then PAPLEPEAPGDNATPEQMAKYAAALRRYINKLTRPRY [4059974], with 0.097 nM; and GAPLEPHFPGDNATPEEMAKYAAELRRYINKLTRPRY (ends and bridges not checked) [compound of SEQ ID NO:1092], with 0.09 nM. In the test with human Y4 receptor [1], AAPLEPEAPGDNATPEQMAKYAAALRRYINKLTRPRY [4059976] gave an IC50 of 0.122 nM. Molecule EPLEPEYPGDDATPQQMARYAAELRRYINKLTRPRY [4057274] yielded a concentration for half-maximal inhibition (IC50) in the test with human Y4 receptor [2] of 0.103 nM. The same measure, in the same setting: then PAPLEPSYPGDDATPQQMAKYAAELRRYINKLTRPRY [4057442], with 0.101 nM.
